Data: article PMC9484696, “Identification of Aedes aegypti salivary gland proteins interacting with human immune receptor proteins” (PLoS Neglected Tropical Diseases, 2022)

Target: T1, ectodomain of human CD4 (26-396 amino acid residues), recombinant (human, UniProt P01730 26-396)
T1 construct: CD4, human, ectodomain, residues 26-396; Cloned into pfastbac1 with the GP64 signal peptide for secretion and a preScission protease site; also called recombinant CD4; CD4 protein
Assay: ELISA; 5 μg salivary gland protein coated overnight at 4°C on high binding 96-well plates, blocked with 1% BSA in PBST; 1 μg CD4 or DC-SIGN ectodomain added at 37°C for 1 h; detected with rabbit anti-CD4 or HRP anti-DC-SIGN monoclonal antibody, TMB, read at 450 nm
Conditions: both partners purified

B1: recombinant Ae. aegypti venom allergen 1 (AaVA-1) (natural protein, Aedes aegypti, UniProt A0A1S4EWW7 22-255, looked up)
chain: NYCDQSLCRRGPHVACNAPTQFGSACGQEPKFVKMDARMKNLLLKKHNELRAEIACGKHGFPQAARMPTLVWDDELAHIASFNARKCIFAHDKCRNTREFKFAGQNLAITAFAGYNFQAADRAENFTQEWFNEHKDCPKSYVDSYPMSHSGPQIGHFTQMVNDRAWKMGCSMVHYKNGRVIKYYLVCNYSMTNMIEEPIYTRGSAGSKCQTGQNPQYRGLCSPREKVRSESYRG
notes: Made with the GP64 signal peptide, so its own signal peptide was probably left out; also called AVAa-1
binding result: binds
